The values that follow are results of earlier work, collected in paper PMC12608911.

As a reminder, the Kd is a measure of binding affinity in units of concentration.

Like-named read-outs stand apart in the source and are kept apart here.

The target in data set [1] is TREM-1 (Mus musculus) (UniProt Q9JKE2).
The target is the same in data set [2]. The source holds these as a separate data set.
Data set [3] deals with TREM-1 (Homo sapiens) (UniProt Q9NP99).
Target sequence in this assay (Q9NP99 21-234): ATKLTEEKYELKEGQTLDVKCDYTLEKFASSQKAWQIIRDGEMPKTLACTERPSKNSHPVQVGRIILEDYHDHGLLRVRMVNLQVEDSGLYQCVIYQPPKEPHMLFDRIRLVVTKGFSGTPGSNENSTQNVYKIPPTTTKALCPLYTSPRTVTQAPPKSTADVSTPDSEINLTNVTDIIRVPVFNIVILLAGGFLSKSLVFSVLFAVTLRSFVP
The target is the same in data set [4]. The source holds these as a separate data set.
Target sequence in this assay (Q9NP99 21-205): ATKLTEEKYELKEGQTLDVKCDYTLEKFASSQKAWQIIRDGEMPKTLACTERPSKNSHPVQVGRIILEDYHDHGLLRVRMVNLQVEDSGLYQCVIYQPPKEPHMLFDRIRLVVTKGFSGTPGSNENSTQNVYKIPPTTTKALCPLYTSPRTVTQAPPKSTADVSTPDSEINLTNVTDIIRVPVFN
Data set [5] shares this target. The source holds these as a separate data set.
Target sequence in this assay (Q9NP99 21-205): as above
For data set [6] the target is unchanged. This is another data set of the same source.
Target sequence in this assay (Q9NP99 21-205): as above
The target in data set [7] is TREM-1 (Mus musculus) (UniProt Q9JKE2). This is another data set of the same source.

Chain of TREM-1 (Mus musculus) (Q9JKE2 21-230): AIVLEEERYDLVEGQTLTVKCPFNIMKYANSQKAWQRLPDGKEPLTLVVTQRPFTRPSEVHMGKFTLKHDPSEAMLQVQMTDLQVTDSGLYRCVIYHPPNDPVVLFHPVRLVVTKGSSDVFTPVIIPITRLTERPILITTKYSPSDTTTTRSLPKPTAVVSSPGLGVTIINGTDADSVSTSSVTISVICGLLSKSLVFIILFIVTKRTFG
Chain of PGLYRP1 peptide 17 (O75594 22-196): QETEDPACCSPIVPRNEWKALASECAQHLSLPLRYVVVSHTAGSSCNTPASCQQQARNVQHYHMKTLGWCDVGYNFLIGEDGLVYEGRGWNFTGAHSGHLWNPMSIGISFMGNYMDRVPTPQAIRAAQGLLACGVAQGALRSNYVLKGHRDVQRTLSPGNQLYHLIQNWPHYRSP
Chain of PGLYRP1 peptide N15 (O75594 22-196): as above
Chain of PGLYRP1 peptide N9 (O75594 22-196): as above
Chain of HMGB1 (P63158 whole entry): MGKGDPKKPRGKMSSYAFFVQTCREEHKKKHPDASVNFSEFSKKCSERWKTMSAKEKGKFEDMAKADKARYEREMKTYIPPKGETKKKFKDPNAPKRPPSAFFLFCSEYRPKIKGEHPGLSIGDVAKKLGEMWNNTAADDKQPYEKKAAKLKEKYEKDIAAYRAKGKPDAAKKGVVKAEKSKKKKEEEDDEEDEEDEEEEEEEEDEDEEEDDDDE
Chain of eCIRP (P60824 whole entry): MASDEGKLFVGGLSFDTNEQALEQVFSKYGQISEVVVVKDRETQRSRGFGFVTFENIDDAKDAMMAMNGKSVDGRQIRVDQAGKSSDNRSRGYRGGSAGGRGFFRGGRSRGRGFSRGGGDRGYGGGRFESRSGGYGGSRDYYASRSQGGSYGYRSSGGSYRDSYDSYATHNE
Chain of CIRP (P60824 whole entry): as above
Chain of HSP70 N7 peptide (P0DMV8 2-641): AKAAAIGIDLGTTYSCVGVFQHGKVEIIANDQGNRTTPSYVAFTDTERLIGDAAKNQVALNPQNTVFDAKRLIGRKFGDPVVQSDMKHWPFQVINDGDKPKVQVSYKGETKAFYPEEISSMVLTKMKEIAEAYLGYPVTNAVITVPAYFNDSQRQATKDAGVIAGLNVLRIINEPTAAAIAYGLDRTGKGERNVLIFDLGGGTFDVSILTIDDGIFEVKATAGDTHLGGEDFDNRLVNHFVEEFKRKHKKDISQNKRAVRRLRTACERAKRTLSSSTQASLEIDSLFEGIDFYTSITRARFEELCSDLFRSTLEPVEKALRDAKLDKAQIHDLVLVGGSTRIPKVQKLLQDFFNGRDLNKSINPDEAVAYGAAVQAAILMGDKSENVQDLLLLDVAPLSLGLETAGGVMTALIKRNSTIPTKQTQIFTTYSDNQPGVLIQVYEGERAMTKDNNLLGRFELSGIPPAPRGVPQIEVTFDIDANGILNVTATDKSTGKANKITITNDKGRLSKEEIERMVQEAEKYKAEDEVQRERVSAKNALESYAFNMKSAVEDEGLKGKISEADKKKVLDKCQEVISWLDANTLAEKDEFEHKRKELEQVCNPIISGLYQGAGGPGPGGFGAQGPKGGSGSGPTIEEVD

For the substance CIRP (from UniProt P60824), in the data set with TREM-1 (Mus musculus) [1], the dissociation constant (Kd) was 120 nM.

Take HMGB1 (from UniProt P63158): in the data set with TREM-1 (Mus musculus) [2], the Kd is 35400 nM.

Consider HSP70 N7 peptide (from UniProt P0DMV8), for which the Kd with TREM-1 (Homo sapiens) [3] is 1.6 nM.

Take “PGLYRP1 peptide 17 (from UniProt O75594)”: the Kd with TREM-1 (Homo sapiens) [4] was 1.3 nM.

For the substance “PGLYRP1 peptide N9 (from UniProt O75594)”, the Kd with TREM-1 (Homo sapiens) [5] was 9.7 nM.

With “PGLYRP1 peptide N15 (from UniProt O75594)”, the Kd in the data set with TREM-1 (Homo sapiens) [6] is 7.4 nM.

As to eCIRP (from UniProt P60824), the Kd in the data set with TREM-1 (Mus musculus) [7] is 117 nM.
